Assay results: paper PMC12789631

System: CCCCC[C@H](O)/C=C/[C@H]1[C@H](O)CC(=O)[C@@H]1C/C=C\CCCC(=O)O
Experiment: cells, lysate or membranes

## prostaglandin transporter PGT (OATP2A1) (Homo sapiens; S346A)
  Km: 1.14 µM
